This experiment has as its target Human tauP301L (0N4R), recombinant, N-terminal His tag (UniProt P10636 2-758). Put plainly: capping of pre-formed Tau P301L fibers, inhibition of seeding in HEK293 tau-RD-YFP cells.

Starred links: 1 amine or outer side, 2 acyl side, 3 side chain; linkers in the order of their positions; H or OH if unused. Non-standard residues stand in square brackets, D forms with d. Primed or numbered codes have the meaning given here. aTyr = Tyr with backbone N-amino (N-aminated amide nitrogen), NN([C@@H](Cc1ccc(O[*:3])cc1)C(=O)[*:2])[*:1]; aIle′ = Ile with backbone N-amino (N-aminated amide nitrogen), CC[C@H](C)[C@@H](C(=O)[*:2])N(N)[*:1]; aVal = Val with backbone N-amino (N-aminated amide nitrogen), CC(C)[C@@H](C(=O)[*:2])N(N)[*:1]; N(NH2)Lys = NCCCC[C@H](NN)C(=O)O

Chain of Human tauP301L (0N4R), recombinant, N-terminal His tag (P10636 other isoform, or with tags, fused parts or gaps): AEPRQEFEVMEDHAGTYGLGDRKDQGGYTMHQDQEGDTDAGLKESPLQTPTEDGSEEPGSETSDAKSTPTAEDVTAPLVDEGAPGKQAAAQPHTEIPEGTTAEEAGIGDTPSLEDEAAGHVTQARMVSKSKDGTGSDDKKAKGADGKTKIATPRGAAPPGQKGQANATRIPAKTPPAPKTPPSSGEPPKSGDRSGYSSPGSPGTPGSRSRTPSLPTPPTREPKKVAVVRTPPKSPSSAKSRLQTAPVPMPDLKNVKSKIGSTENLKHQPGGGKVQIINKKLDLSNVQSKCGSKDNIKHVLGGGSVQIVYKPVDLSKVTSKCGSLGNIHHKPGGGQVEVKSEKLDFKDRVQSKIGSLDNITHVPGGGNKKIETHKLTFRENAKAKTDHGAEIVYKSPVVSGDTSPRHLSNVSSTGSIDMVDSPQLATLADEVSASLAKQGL

B1: Compound 12, Ac-Val-Gln-aIle-Val-aTyr-Lys-NH2 (peptide)
peptide: Ac-VQ[aIle′]V[aTyr]K-NH2
SMILES: CC[C@H](C)[C@@H](C(=O)N[C@H](C(=O)N(N)[C@@H](Cc1ccc(O)cc1)C(=O)N[C@@H](CCCCN)C(N)=O)C(C)C)N(N)C(=O)[C@H](CCC(N)=O)NC(=O)[C@@H](NC(C)=O)C(C)C
Take B1: the IC50 (as a rule, the midpoint of a concentration-inhibition curve) stood at 4.8 µM.

B2: Compound 4, Ac-aVal-Gln-aIle-Ile-Asn-Lys-NH2 (peptide)
peptide: Ac-[aVal]Q[aIle′]INK-NH2
SMILES: CC[C@H](C)[C@H](NC(=O)[C@H]([C@@H](C)CC)N(N)C(=O)[C@H](CCC(N)=O)NC(=O)[C@H](C(C)C)N(N)C(C)=O)C(=O)N[C@@H](CC(N)=O)C(=O)N[C@@H](CCCCN)C(N)=O
For the molecule B2, the IC50 is > 20 µM.

B3: Compound 13, Ac-Val-Gln-Ile-aVal-Tyr-aLys-NH2 (peptide)
peptide: Ac-VQI[aVal]Y[N(NH2)Lys]-NH2
SMILES: CC[C@H](C)[C@H](NC(=O)[C@H](CCC(N)=O)NC(=O)[C@@H](NC(C)=O)C(C)C)C(=O)N(N)[C@H](C(=O)N[C@@H](Cc1ccc(O)cc1)C(=O)N(N)[C@@H](CCCCN)C(N)=O)C(C)C
In the case of B3, the concentration for half-maximal inhibition (IC50) is 4.7 µM.

Values taken from patent US20240116984A1 (published 2024).
